Two molecules from patent US20180051085A1 (published 2018) can be followed below.

Experiment [1] has as its target T1, recombinant human PD-1-His (human, UniProt Q15116 25-167, limits assumed).
T1 construct: also called recombinant PD-1-His; not shown: His tag
The experiment is described as follows: binding to recombinant human PD-1-His (FIG. 8).

The target of experiment [2] is T2, human PD-1 expressed on cells (human, UniProt Q15116 25-288).
T2 construct: whole, on cells; also called SpESFX-2D1
The experiment is described as follows: binding to 2D1 cells transfected with human PD-1 (FIG. 9).

T1 sequence (Q15116 25-167 limits assumed): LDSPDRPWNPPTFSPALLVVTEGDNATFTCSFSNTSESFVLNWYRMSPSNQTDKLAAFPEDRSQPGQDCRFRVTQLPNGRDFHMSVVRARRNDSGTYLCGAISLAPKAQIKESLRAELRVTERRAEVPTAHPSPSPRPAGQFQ
T2 sequence (Q15116 25-288): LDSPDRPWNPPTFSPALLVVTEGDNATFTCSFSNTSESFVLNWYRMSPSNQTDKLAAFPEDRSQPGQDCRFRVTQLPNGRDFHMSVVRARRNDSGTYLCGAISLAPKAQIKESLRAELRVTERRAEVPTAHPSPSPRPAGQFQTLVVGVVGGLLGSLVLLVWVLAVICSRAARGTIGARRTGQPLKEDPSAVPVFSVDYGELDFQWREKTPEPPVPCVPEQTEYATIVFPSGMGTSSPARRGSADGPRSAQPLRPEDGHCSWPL

B1: humanized anti-PD-1 antibody hPD-1-v5 (antibody, V domains shown)
VH: QVQLVESGGGLVKPGGSLRLSCAASGFAFSSNDMSWVRQAPGKGLEWVATISGGGINTYYPDSVKGRFTISRDNAKNTLYLQMNSLRAEDTAVYYCARRSNYAWFAYWGQGTPVTVSA
VL: DIQLTQSPASLAVSLGQRATISCRASESVDTYGISFMNWFQQKPGQPPKLLISPNQGSGVPARFSGSGSGTDFTLTINSLEAEDTAVYFCQQSKEVPWTFGGGTKLEIK
notes: also called version 5 (V5) antibody
B1: the EC50 in experiment [1] was found to be 148 pM; in experiment [2], 3800 pM.

B2: chimeric anti-PD-1 antibody 2G9 (IMMU-cPD-1) (antibody, V domains shown)
VH: VKLQESGGGLVKPGGSLKLSCAASGFAFSSNDMSWVRQTPEKRLEWVATISGGGINTYYPDSVKGRFTISRDNARNTLDLQMSSLRSEDTALYYCARRSNYAWFAYWGQGTPVTVSA
VL: not shown
B2: the EC50 in experiment [1] worked out at 43 pM; in experiment [2], 1100 pM.

By EC50 is commonly meant the concentration at which the effect is half-maximal.
